Data as given in doi:10.1101/332304 (bioRxiv, 2018).

Target: T1, (NPNA)2 peptide (Plasmodium falciparum)
T1 chain: NPNANPNA
Test: ITC

B1: Fab311 inter-Fab contact residue reverted (Fab311R) (Fab, V domains shown)
VH: QVQLVESGGGVVPPGRSLRLSCATSGFTFSSYGMHWVRQAPGKGLEWVAIIWYDGSNKFYAASVKGRFTISRDNSKNTLYLQMNSLRVEDTAVYYCARAAYYDTSGYGDYWGQGTLVTVSS
VL: QSVLTQPPSVSGAPGQTVTISCTGGSSNIGAGYDVHWYQQLPGTAPKLLIYGNINRPSGVPDRFSGSKSGTSASLAITGLQAEDEADYYCQSYDSSLSGSWVFGGGTKLTVL
binding result: binds
